Assay results published in patent US20050026839A1 (GENERAL HOSPITAL, published 2005).
Read-outs that look alike come from different tables or passages of the source. Square brackets hold non-standard residues; d marks the D form. Ends that are not written are not given here. hArg = N=C(N)NCCCC[C@H](N)C(=O)O; Nle = CCCC[C@H](N)C(=O)O; Aib = CC(C)(N)C(=O)O

Legend:
[1] = molecular target: wild-type human PTH/PTHrP receptor (hP1R-WT) (human) (UniProt Q03431); assay: competition binding, 125I-[M]PTH(1-21) tracer, HKRK-B28 cells
[2] = molecular target: wild-type human PTH/PTHrP receptor (hP1R-WT) (human) (UniProt Q03431); assay: cell-based or functional assay
[3] = molecular target: T1, truncated human P1R deleted for residues (24-181) (hP1R-delNt) (human, UniProt Q03431 182-593); assay: competition binding vs 125I-[Aib1,3,M]PTH(1-21), COS-7 cells with hP1R-delNt
T1 construct: whole, on cells; also called delNT receptor
T1 sequence (looked up): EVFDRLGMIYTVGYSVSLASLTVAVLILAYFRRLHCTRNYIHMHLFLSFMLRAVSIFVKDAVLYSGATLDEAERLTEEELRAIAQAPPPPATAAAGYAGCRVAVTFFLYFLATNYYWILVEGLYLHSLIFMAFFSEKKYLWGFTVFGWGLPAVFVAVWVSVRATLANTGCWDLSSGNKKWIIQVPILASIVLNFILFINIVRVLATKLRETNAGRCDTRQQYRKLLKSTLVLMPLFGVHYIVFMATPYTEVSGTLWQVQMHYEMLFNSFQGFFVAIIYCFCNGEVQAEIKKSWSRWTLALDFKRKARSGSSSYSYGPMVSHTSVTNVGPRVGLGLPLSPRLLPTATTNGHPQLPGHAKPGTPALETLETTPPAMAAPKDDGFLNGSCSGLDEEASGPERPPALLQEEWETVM
Experimental: (§1) Stock solutions of EGTA/trypsin and antibiotics were from GIBCO; fetal bovine serum was from Hyclone Laboratories (Logan, Utah). […] All cells, in 24-well plates, were treated with fresh media and shifted to 33° C. for 12 to 24 h prior to assay.
(§2) Competition Binding. Binding reactions were performed with HKRK-B28 cells or in COS-7 cells in 24-well plates. The cells were rinsed with 0.5 mL of binding buffer, and then treated successively with 100 μL binding buffer, 100 μL of binding buffer containing various amounts of unlabeled competitor ligand, and 100 μL of binding buffer containing ca. 100,000 cpm of ¹²⁵I-[M]PTH(1-21) or ¹²⁵I-[Aib^{1,3},M]PTH(1-21)} (ca. 26 fmol; final volume=300 μL). Incubations were 4 to 6 h at 4° C., at which time near equilibrium conditions were attained. Cells were then placed on ice, the binding medium was removed, and the monolayer was rinsed three times with 0.5 mL of cold binding buffer. The cells were subsequently lysed with 0.5 mL […] NaOH and counted for radioactivity. For each tracer and in each experiment, the non-specific binding was determined as the radioactivity that bound in the presence of the same unlabeled peptide at a concentration of 1 μM, and was ˜1% of total radioactivity added for each tracer. The maximum specific binding (B₀) was the total radioactivity bound in the absence of competing ligand, corrected for nonspecific binding, and for each tracer, ranged from 8% to 20% of the total radioactivity added. Nonlinear regression was used to calculate binding IC₅₀ values (see below). Scatchard transformations of homologous competition binding data derived from studies with 26 fmol of ¹²⁵I-[Aib^{1,3},M]PTH(1-21) were employed for estimations of apparent equilibrium dissociation constant (kDapps) and total number of ligand binding sites (Bₘₐₓ), assuming a single class of binding sites and equal affinities of the iodinated and non iodinated ligand.

[4] = molecular target: T2, wild-type human PTH/PTHrP receptor (hP1R-WT) (human, UniProt Q03431 27-593); assay: cell-based or functional assay
T2 sequence (looked up): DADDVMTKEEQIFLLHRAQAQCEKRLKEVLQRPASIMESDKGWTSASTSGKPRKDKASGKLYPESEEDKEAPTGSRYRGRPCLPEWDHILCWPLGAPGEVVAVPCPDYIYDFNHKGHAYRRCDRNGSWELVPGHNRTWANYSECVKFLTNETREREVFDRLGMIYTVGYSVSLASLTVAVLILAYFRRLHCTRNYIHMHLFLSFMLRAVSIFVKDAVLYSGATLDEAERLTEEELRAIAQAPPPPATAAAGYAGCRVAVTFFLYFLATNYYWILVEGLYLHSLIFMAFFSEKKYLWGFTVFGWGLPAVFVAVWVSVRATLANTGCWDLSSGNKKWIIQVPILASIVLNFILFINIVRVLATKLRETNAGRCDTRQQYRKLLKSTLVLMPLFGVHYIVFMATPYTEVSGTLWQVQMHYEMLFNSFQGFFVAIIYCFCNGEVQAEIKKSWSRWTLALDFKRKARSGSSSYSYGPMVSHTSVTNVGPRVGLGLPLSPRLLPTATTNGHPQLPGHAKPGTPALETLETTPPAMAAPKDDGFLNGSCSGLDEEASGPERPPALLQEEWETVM

[5] = molecular target: T2, wild-type human PTH/PTHrP receptor …; assay: competition binding, 125I-[M]PTH(1-21) tracer, HKRK-B28 cells, 4 h at 4 C
Experimental: as §2
Peptides PTH(1-34) ([Nle^{8,21}, Tyr³⁴]PTH(1-34)amide), [M]PTH(1-14) (M = Ala^{3,12}, Gln¹⁰, Har¹¹, Trp¹⁴), and [M]PTH(1-14 analogs, or C-terminally truncated derivatives thereof, containing α-aminoisobutyric acid (Aib) substitutions at the indicated positions were functionally evaluated in HKRK-B28 cells. “M” in [Aib^{1,3}, M]PTH(1-21) = Nle⁸, Gln¹⁰, Har¹¹, Ala¹², Trp¹⁴, Arg¹⁹ and Tyr²¹. The basal cAMP values (not subtracted) were 4.0 ± 0.1 pmole/well (n = 10). Peptides were based on the rat PTH sequence and were carboxy-amidated. Competition binding analyses were performed with ¹²⁵I-[M]PTH(1-21 )amide (Ala^{1,3}) as tracer for 4 h at 4° C. Data are means (±S.E.M.) Of the number of experiments indiated (n).

[6] = molecular target: T1, truncated human P1R deleted for …; assay: cell-based or functional assay
[7] = molecular target: T2, wild-type human PTH/PTHrP receptor …; assay: cell-based or functional assay; remark: listed apart in the source
[8] = molecular target: T2, wild-type human PTH/PTHrP receptor …; assay: competition binding, 125I-[Aib1,3,M]PTH(1-21) tracer, COS-7 cells expressing hP1R-WT
Experimental: as §2

[9] = molecular target: T2, wild-type human PTH/PTHrP receptor …; assay: cell-based or functional assay; remark: listed apart in the source
[10] = molecular target: T1, truncated human P1R deleted for …; assay: competition binding, 125I-[Aib1,3,M]PTH(1-21) tracer, COS-7 cells expressing hP1R-delNt
Experimental: as §1, §2

[11] = molecular target: T2, wild-type human PTH/PTHrP receptor …; assay: competition binding vs 125I-[Aib1,3,M]PTH(1-21), COS-7 cells with hP1R-WT
[12] = molecular target: T1, truncated human P1R deleted for …; assay: cell-based or functional assay; remark: listed apart in the source
[13] = molecular target: T2, wild-type human PTH/PTHrP receptor …; assay: cell-based or functional assay; remark: listed apart in the source
[14] = molecular target: T1, truncated human P1R deleted for …; assay: cell-based or functional assay; remark: listed apart in the source
[15] = molecular target: T2, wild-type human PTH/PTHrP receptor …; assay: radioligand binding to HKRK-B28 cells
[16] = molecular target: T1, truncated human P1R deleted for …; assay: radioligand binding, COS-7 cells with P1R-delNt

B1: [Aib^5,M]PTH(1-14) (peptide)
peptide: AVAE[Aib]QLMHQ[hArg]AKW-NH2
modifications: N-terminus assumed
SMILES: CSCC[C@H](NC(=O)[C@H](CC(C)C)NC(=O)[C@H](CCC(N)=O)NC(=O)C(C)(C)NC(=O)[C@H](CCC(=O)O)NC(=O)[C@H](C)NC(=O)[C@@H](NC(=O)[C@H](C)N)C(C)C)C(=O)N[C@@H](Cc1c[nH]cn1)C(=O)N[C@@H](CCC(N)=O)C(=O)N[C@@H](CCCCNC(=N)N)C(=O)N[C@@H](C)C(=O)N[C@@H](CCCCN)C(=O)N[C@@H](Cc1c[nH]c2ccccc12)C(N)=O
- fold reduction in affinity relative to [M]PTH(1-14) [1]: < 10 fold
- cAMP EC50 [2]: 66000 nM
- cAMP EMax(obs.) [2]: 169 pmole/well

B2: [Nle^8,21,Tyr^34]PTH(1-34)amide (rat sequence) (peptide)
peptide: AVSEIQLXHNLGKHLASVERXQWLRKKLQDVHNY
modifications: Nle (norleucine) at 8 and 21; C-terminal amide
notes: also called 92 PTH(1-34); 92.5 PTH(1-34)
- binding result [3]: no binding
- cAMP EC50 [4]: 2.5 nM
- cAMP EMax(obs.) [4]: 280 pmole/well
- IC50 [5]: 18 nM
- cAMP EC50 [6]: 680 nM
- cAMP EMax(obs.) [6]: 220 pmole/well
- PLC EC50 [7]: 17 nM
- PLC EMAX(obs.) [7]: 4.2 foldxbasal
- cAMP EC50 [7]: 1.4 nM
- cAMP EMax(obs.) [7]: 240 pmole/well
- IC50 [8]: 12 nM
- cAMP EC50 in SaOS-2 cells [9]: 0.2 nM

B3: [Ala^3,12,Gln^10,Har^11,Trp^14]PTH(1-14)amide (peptide)
peptide: AVAEIQLMHQ[hArg]AKW-NH2
modifications: N-terminus assumed
SMILES: CC[C@H](C)[C@H](NC(=O)[C@H](CCC(=O)O)NC(=O)[C@H](C)NC(=O)[C@@H](NC(=O)[C@H](C)N)C(C)C)C(=O)N[C@@H](CCC(N)=O)C(=O)N[C@@H](CC(C)C)C(=O)N[C@@H](CCSC)C(=O)N[C@@H](Cc1c[nH]cn1)C(=O)N[C@@H](CCC(N)=O)C(=O)N[C@@H](CCCCNC(=N)N)C(=O)N[C@@H](C)C(=O)N[C@@H](CCCCN)C(=O)N[C@@H](Cc1c[nH]c2ccccc12)C(N)=O
notes: X = Har; also called [M]PTH(1-14); 621 [M]PTH(1-14)
- IC50 [10]: 17400 nM
- cAMP EC50 [4]: 100 nM
- cAMP EMax(obs.) [4]: 270 pmole/well
- IC50 [5]: 13000 nM
- cAMP EC50 [6]: 40 nM
- cAMP EMax(obs.) [6]: 220 pmole/well
- PLC EC50 [7]: 4700 nM
- PLC EMAX(obs.) [7]: 3.9 foldxbasal
- cAMP EC50 [7]: 49 nM
- cAMP EMax(obs.) [7]: 240 pmole/well
- IC50 [8]: 20000 nM
- cAMP EC50 in SaOS-2 cells [9]: 340 nM

B4: [Aib^1,3,Gln^10]PTH(1-10) (peptide)
peptide: [Aib]V[Aib]EIQLMHQ-NH2
modifications: N-terminus assumed
SMILES: CC[C@H](C)[C@H](NC(=O)[C@H](CCC(=O)O)NC(=O)C(C)(C)NC(=O)[C@@H](NC(=O)C(C)(C)N)C(C)C)C(=O)N[C@@H](CCC(N)=O)C(=O)N[C@@H](CC(C)C)C(=O)N[C@@H](CCSC)C(=O)N[C@@H](Cc1c[nH]cn1)C(=O)N[C@@H](CCC(N)=O)C(N)=O
notes: also called 684 [Aib^1,3, M]PTH (1-10); [Aib^1,3,M]PTH(1-10)
- binding result [3]: no binding
- cAMP EC50 [4]: 16000 nM
- cAMP EMax(obs.) [4]: 111 pmole/well
- cAMP EC50 [6]: 53000 nM
- cAMP EMax(obs.) [6]: 84 pmole/well
- cAMP EC50 [7]: 100000 nM
- cAMP EMax(obs.) [7]: 120 pmole/well
- binding result [11]: no binding

Binder: AVSEIQLMHNLGKH-NH2 (also called 521 PTH(1-14)) [native PTH(1-14) (rat sequence, amide)]
- binding result [3]: no binding
- cAMP EC50 [6]: 140000 nM
- cAMP EMax(obs.) [6]: 110 pmole/well
- cAMP EC50 [7]: 90000 nM
- cAMP EMax(obs.) [7]: 140 pmole/well

Binder: [Aib]V[Aib]EIQLMHNLGKHLNSMERVEWLRKKLQDVHNY-NH2 [[Aib^1,3,Tyr^34]-hPTH(1-34)]
- cAMP EC50 [12]: 43 nM
- cAMP EC50 [13]: 0.67 nM

Binder: [Aib]V[Aib]EIQLMHQ[hArg]AKWLNSMRRVEWLRKKLQDVHNY-NH2 [[Aib^1,3,Gln^10,Har^11,Ala^12,Trp^14,Arg^19,Tyr^34]hPTH(1-34)]
- cAMP EC50 [14]: 1.9 nM

Binder: AVAEIQL[Nle]HQ[hArg]AKWY-NH2 (also: 125I radiolabel, iodinated residue not given here) [^125I-[Ala^3,12Nle^8Gln^10,Har^11,Trp^14,Tyr^15]PTH(1-15)amide]
- binding result [15]: no binding

Binder: AVAEIQL[Nle]HQ[hArg]AKWLASVRRY-NH2 (also: 125I radioiodinated, residue not given here, Tracer radioligand) [^125I-[M]PTH(1-21)]
- binding result [16]: no binding
